Assays:
[1] = target: recombinant MUC5B N terminus D1-D2-D′-D3 (NT5B), from A549 cells (human) (UniProt Q9HC84); test: SDS-PAGE (reduced and nonreduced) and Western blot with anti-His antibody; conditioned medium of transiently transfected A549 cells
[2] = target: disulfide-linked NT5B dimer (human) (UniProt Q9HC84); test: AUC; sedimentation velocity, 35,000 rpm, 20 °C; NT5B in 5 mM CaCl2 at pH 6; reversed by 10 mM EGTA and pH 7.4
[3] = target: disulfide-linked NT5B dimer (human) (UniProt Q9HC84); test: SEC-MALLS; NT5B in 5 mM CaCl2 at pH 6, Superose 6 10/300, 25 mM Hepes, 150 mM NaCl; recovery in the dimer peak compared with 5 mM EGTA at pH 6
[4] = target: disulfide-linked NT5B dimer (human) (UniProt Q9HC84); test: AUC; sedimentation velocity, 35,000 rpm, 20 °C; NT5B in 5 mM CaCl2 at pH 5
[5] = target: recombinant MUC5B N terminus D1-D2-D′-D3 (NT5B), from 293-EBNA cells (human) (UniProt Q9HC84); test: AUC; sedimentation velocity, 35,000 rpm, 20 °C; NT5B in 5 mM EGTA at pH 7.4 or pH 6, or 5 mM CaCl2 at pH 7.4
[6] = target: recombinant MUC5B N terminus D1-D2-D′-D3 (NT5B), from 293-EBNA cells (human) (UniProt Q9HC84); test: SDS-PAGE, reduced and nonreduced; purified recombinant proteins from 293-EBNA conditioned medium; shows disulfide-linked dimers
[7] = target: recombinant MUC5B N terminus D1-D2-D′-D3 (NT5B), from 293-EBNA cells (human) (UniProt Q9HC84); test: SEC-MALLS; Superose 6 10/300, 25 mM Hepes, 150 mM NaCl, with 5 mM CaCl2 or 5 mM EGTA at pH 7.4 or pH 6, room temperature, after overnight incubation at 4 °C
[8] = target: the molecule itself; test: SDS-PAGE, reduced and nonreduced; purified recombinant proteins from 293-EBNA conditioned medium; shows disulfide-linked dimers

With “recombinant MUC5B N terminus D1-D2-D′-D3 (NT5B), from A549 cells (from UniProt Q9HC84 26-1304) (domain or fragment)” as the molecule, how does the stoichiometry N [1] read?
Its stoichiometry N is 2.

With “disulfide-linked NT5B dimer (from UniProt Q9HC84 26-1304) (complex)” as the molecule, how does the multimeric fraction (peak III), percent of total [2] read?
The multimeric fraction (peak III), percent of total was 29 % of total.

What about the reduction of protein recovered in the dimer peak (5 mM CaCl2 pH 6 against 5 mM EGTA pH 6) [3] of the same molecule?
The reduction of protein recovered in the dimer peak (5 mM CaCl2 pH 6 against 5 mM EGTA pH 6) was 15%.

And the higher order multimeric species, percent of total [4]?
The higher order multimeric species, percent of total was 44 % of total.

Which results are given for “recombinant MUC5B N terminus D1-D2-D′-D3 (NT5B), from 293-EBNA cells (from UniProt Q9HC84 26-1304) (domain or fragment)”?
stoichiometry N [5]: 2; stoichiometry N [6]: 2; stoichiometry N [7]: 2

B1: recombinant MUC5B D2-D′-D3 domains (domain or fragment, human, UniProt Q9HC84 425-1304, looked up)
chain: CSVQGGAHISTYDEKLYDLHGDCSYVLSKKCADSSFTVLAELRKCGLTDNENCLKAVTLSLDGGDTAIRVQADGGVFLNSIYTQLPLSAANITLFTPSSFFIVVQTGLGLQLLVQLVPLMQVFVRLDPAHQGQMCGLCGNFNQNQADDFTALSGVVEATGAAFANTWKAQAACANARNSFEDPCSLSVENENYARHWCSRLTDPNSAFSRCHSIINPKPFHSNCMFDTCNCERSEDCLCAALSSYVHACAAKGVQLSDWRDGVCTKYMQNCPKSQRYAYVVDACQPTCRGLSEADVTCSVSFVPVDGCTCPAGTFLNDAGACVPAQECPCYAHGTVLAPGEVVHDEGAVCSCTGGKLSCLGASLQKSTGCAAPMVYLDCSNSSAGTPGAECLRSCHTLDVGCFSTHCVSGCVCPPGLVSDGSGGCIAEEDCPCVHNEATYKPGETIRVDCNTCTCRNRRWECSHRLCLGTCVAYGDGHFITFDGDRYSFEGSCEYILAQDYCGDNTTHGTFRIVTENIPCGTTGTTCSKAIKLFVESYELILQEGTFKAVARGPGGDPPYKIRYMGIFLVIETHGMAVSWDRKTSVFIRLHQDYKGRVCGLCGNFDDNAINDFATRSRSVVGDALEFGNSWKLSPSCPDALAPKDPCTANPFRKSWAQKQCSILHGPTFAACRSQVDSTKYYEACVNDACACDSGGDCECFCTAVAAYAQACHDAGLCVSWRTPDTCPLFCDFYNPHGGCEWHYQPCGAPCLKTCRNPSGHCLVDLPGLEGCYPKCPPSQPFFNEDQMKCVAQCGCYDKDGNYYDVGARVPTAENCQSCNCTPSGIQCAHSLEACTCTYEDRTYSYQDVIYNTTDGLGACLIAICGSNGTIIRKAVACPG
notes: MUC5B, human, D2-D′-D3 domains, residues 425-1304
For B1, which “stoichiometry N” value [8] is on record?
Its value is 2.

B2: recombinant MUC5B D3 domain (domain or fragment, human, UniProt Q9HC84 894-1304, looked up)
chain: TCVAYGDGHFITFDGDRYSFEGSCEYILAQDYCGDNTTHGTFRIVTENIPCGTTGTTCSKAIKLFVESYELILQEGTFKAVARGPGGDPPYKIRYMGIFLVIETHGMAVSWDRKTSVFIRLHQDYKGRVCGLCGNFDDNAINDFATRSRSVVGDALEFGNSWKLSPSCPDALAPKDPCTANPFRKSWAQKQCSILHGPTFAACRSQVDSTKYYEACVNDACACDSGGDCECFCTAVAAYAQACHDAGLCVSWRTPDTCPLFCDFYNPHGGCEWHYQPCGAPCLKTCRNPSGHCLVDLPGLEGCYPKCPPSQPFFNEDQMKCVAQCGCYDKDGNYYDVGARVPTAENCQSCNCTPSGIQCAHSLEACTCTYEDRTYSYQDVIYNTTDGLGACLIAICGSNGTIIRKAVACPG
notes: MUC5B, human, D3 domain, residues 894-1304; also called D3 protein
For B2, which “stoichiometry N” value [8] is on record?
Its value is 2.
